From PMC7921663

What was measured:
Settings in all cases: FA: 50 mM NaCl, 50 mM Tris-HCl pH 8.0, 5 mM DTT, 5 mM MgCl2, room temp, 30 nM FAM substrate, EMSA: 10 mM NaCl, 0.2 mM EDTA, 5 mM b-mercaptoethanol, 0.1% NP-40 …
PARP1 (human) [1] = assay: EMSA
PARP2 (mouse) [2] = assay: EMSA
PARP1 (human) [3] = assay: fluorescence anisotropy
PARP2 (mouse) [4] = assay: fluorescence anisotropy
[5] = single-nt gap with 5'-dRP at the U of primer S3 (UDG + APE1), outward-oriented
[6] = AP site at the U of primer S3 (UDG-generated), outward-oriented
[7] = single-nt gap with 5'-dRP at the U of primer S1 (UDG + APE1), midward-oriented
[8] = single-nt gap with 5'-dRP at the U of primer S3 (UDG + APE1)
[9] = AP site at the U of primer S3 (UDG-generated)
[10] = single-nt gap with 5'-dRP at the U of primer S1 (UDG + APE1)
[11] = AP site at the U of primer S1 (UDG-generated)
[12] = AP site at the U of primer S1 (UDG-generated), midward-oriented

native out-NCP
Kd (PARP1 (human) [1]): 65 nM
Kd (PARP2 (mouse) [2]): 192 nM
Kd (PARP1 (human) [3]): 14 nM
Kd (PARP2 (mouse) [4]): 156 nM

gap out-NCP
Kd (PARP1 (human) [1]; [5]): 38 nM
Kd (PARP2 (mouse) [2]; [5]): 57 nM
Kd (PARP1 (human) [3]; [5]): 10 nM
Kd (PARP2 (mouse) [4]; [5]): 14 nM

AP out-NCP
Kd (PARP1 (human) [1]; [6]): 61 nM
Kd (PARP2 (mouse) [2]; [6]): 130 nM
Kd (PARP1 (human) [3]; [6]): 7 nM
Kd (PARP2 (mouse) [4]; [6]): 160 nM

gap mid-NCP
Kd (PARP1 (human) [3]; [7]): 14 nM
Kd (PARP2 (mouse) [4]; [7]): 128 nM

gap out-DNA
Kd (PARP1 (human) [3]; [8]): 29 nM
Kd (PARP2 (mouse) [4]; [8]): 58 nM

native mid-DNA
Kd (PARP1 (human) [3]): 14 nM
Kd (PARP2 (mouse) [4]): 608 nM

AP out-DNA
Kd (PARP1 (human) [3]; [9]): 23 nM
Kd (PARP2 (mouse) [4]; [9]): 811 nM

native out-DNA
Kd (PARP1 (human) [3]): 14 nM
Kd (PARP2 (mouse) [4]): 839 nM

gap mid-DNA
Kd (PARP1 (human) [3]; [10]): 25 nM
Kd (PARP2 (mouse) [4]; [10]): 145 nM

native mid-NCP
Kd (PARP1 (human) [3]): 11 nM
Kd (PARP2 (mouse) [4]): 151 nM

AP mid-DNA
Kd (PARP1 (human) [3]; [11]): 23 nM
Kd (PARP2 (mouse) [4]; [11]): 690 nM

AP mid-NCP
Kd (PARP1 (human) [3]; [12]): 12 nM
Kd (PARP2 (mouse) [4]; [12]): 162 nM
